Data taken from patent US20230129258A1, “HETEROTANDEM BICYCLIC PEPTIDE COMPLEXES” (BicycleTx Limited, priority 2019, published 2023).
Starred links: 1 amine or outer side, 2 acyl side, 3 side chain; linkers in the order of their positions; H or OH if unused. Positions of bridges follow the written chain, without caps; N, C: chain ends. Non-standard residues stand in square brackets, D forms with d. Chains are numbered I, II in the order given. No end group written: not given here. *: point of attachment. TATA = O=C(CC[*:1])N1CN(C(=O)CC[*:2])CN(C(=O)CC[*:3])C1; Hyp = O=C(O)[C@@H]1C[C@@H](O)CN1; hArg = N=C(N)NCCCC[C@H](N)C(=O)O; tBuAla = CC(C)(C)C[C@H](N)C(=O)O; dK(PYA) = not defined here; Nle = CCCC[C@H](N)C(=O)O; Pent4ynoyl = C#CCCC(=O)*

B1: BCY14334 (peptide)
peptide 1: A[hArg]DC[Hyp]LVNPLCLKP[dD]W[hArg]C
peptide 2: Ac-C[tBuAla]PE[dK](Pent4ynoyl)PYCFADPY[Nle]CA
modifications: linker I:4-I:11-I:18 via TATA; linker II:1-II:8-II:15 via TATA (inferred); not fully specified (some residues); also: N-(acid-PEG3)-N-bis(PEG3-azide) linker at chain 1 N-terminus, joined to dLys(PYA)4 of two BCY8928 chains (1:2 complex)
B2: BCY14335 (peptide)
peptide 1: {Palmitoyl‑Glu‑LysN3-Pent4ynoyl}-A[hArg]DC[Hyp]LVNPLCLKP[dD]W[hArg]C
peptide 2: Ac-C[tBuAla]PE[dK](Pent4ynoyl)PYCFADPY[Nle]CA
modifications: linker I:4-I:11-I:18, II:1-II:8-II:15 via TATA (inferred); not fully specified; also: 1:2 complex: chain 1 Lys ('Lys 8') joined to dLys(PYA)5 of two chain 2 copies via N-(acid-PEG3)-N-bis(PEG3-azide) linker
B3: BCY12973 (peptide)
peptide 1: Ac-A[hArg]DC[Hyp]LVNPLCLHP[dD]W[hArg]CK
peptide 2: Ac-C[tBuAla]PE[dK(PYA)]PYCFADPY[Nle]CA
modifications: linker I:4-I:11-I:18, II:1-II:8-II:15 via TATA; linker I:19-II:5 via N‑(acid-PEG3)‑N‑bis(PEG3-azide); reading uncertain; also: two CD137 bicycles per complex (EphA2:CD137 1:2)
B4: BCY12975 (peptide)
peptide 1: Ac-A[hArg]DC[Hyp]KVNPLCLHP[dD]W[hArg]C
peptide 2: Ac-C[tBuAla]PE[dK(PYA)]PYCFADPY[Nle]CA
modifications: linker I:4-I:11-I:18, II:1-II:8-II:15 via TATA; linker I:6-II:5 via N‑(acid-PEG3)‑N‑bis(PEG3-azide); reading uncertain; also: two CD137 bicycles per complex (EphA2:CD137 1:2)
B5: BCY12976 (peptide)
peptide 1: Ac-A[hArg]DC[Hyp]LVNPLCKHP[dD]W[hArg]C
peptide 2: Ac-C[tBuAla]PE[dK(PYA)]PYCFADPY[Nle]CA
modifications: linker I:4-I:11-I:18, II:1-II:8-II:15 via TATA; linker I:12-II:5 via N‑(acid-PEG3)‑N‑bis(PEG3-azide); reading uncertain; also: two CD137 bicycles per complex (EphA2:CD137 1:2)
B6: BCY12977 (peptide)
peptide 1: A[hArg]DC[Hyp]LVNPLCLHP[dE]W[hArg]C
peptide 2: Ac-C[tBuAla]PE[dK(PYA)]PYCFADPY[Nle]CA
modifications: linker I:4-I:11-I:18, II:1-II:8-II:15 via TATA; linker II:N-II:5 via N‑(acid-PEG3)‑N‑bis(PEG3-azide); reading uncertain; also: two CD137 bicycles per complex (EphA2:CD137 1:2)
B7: BCY12979 (peptide)
peptide 1: A[hArg]DC[Hyp]LVNPLCLHP[dD]W[hArg]C
peptide 2: Ac-C[tBuAla]PE[dK(PYA)]PYCFADPY[Nle]CA
modifications: linker I:4-I:11-I:18, II:1-II:8-II:15 via TATA; not fully specified (bridges); reading uncertain; also: two CD137 bicycles per complex (EphA2:CD137 1:2)

Target: CD137 on Jurkat reporter cells (Promega kit CS196005) (UniProt Q07011)
Assay: cell-based or functional assay

Sequence of CD137 on Jurkat reporter cells (Promega kit CS196005) (Q07011 24-255 limits assumed): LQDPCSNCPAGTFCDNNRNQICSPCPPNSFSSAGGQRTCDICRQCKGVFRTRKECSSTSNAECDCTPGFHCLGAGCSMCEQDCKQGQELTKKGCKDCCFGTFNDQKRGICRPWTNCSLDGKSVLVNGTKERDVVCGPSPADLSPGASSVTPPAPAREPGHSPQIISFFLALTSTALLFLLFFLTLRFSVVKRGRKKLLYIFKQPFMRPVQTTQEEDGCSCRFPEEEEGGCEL

Question: For B1, which Fold Improvement over BCY9173, EC50, PC3 is on record?
Answer: The Fold Improvement over BCY9173, EC50, PC3 was 7.21 fold.

Question: And the Fold Improvement over Emax (BCY9173), PC3?
Answer: The Fold Improvement over Emax (BCY9173), PC3 was 1.62 fold.

Question: For B2, which Fold Improvement over BCY9173, EC50, PC3 is on record?
Answer: The Fold Improvement over BCY9173, EC50, PC3 was 7.14 fold.

Question: And the Fold Improvement over Emax (BCY9173), PC3?
Answer: Its Fold Improvement over Emax (BCY9173), PC3 is 0.94 fold.

Question: What does the source list for B3?
Answer: EC50 (nM), PC3 co-culture: 0.16 nM; Emax (fold induction over background), PC3 (fold over background): 48.6

Question: With B4 as the binder, how does the EC50 (nM), PC3 co-culture read?
Answer: The EC50 (nM), PC3 co-culture was 0.16 nM.

Question: And the Emax (fold induction over background), PC3 (fold over background)?
Answer: The Emax (fold induction over background), PC3 (fold over background) was 68.8.

Question: With B5 as the binder, how does the EC50 (nM), PC3 co-culture read?
Answer: The EC50 (nM), PC3 co-culture was 0.18 nM.

Question: What about the Emax (fold induction over background), PC3 (fold over background) of the same binder?
Answer: The Emax (fold induction over background), PC3 (fold over background) was 73.2.

Question: How did the EC50 (nM), PC3 co-culture turn out when B6 was run?
Answer: Its EC50 (nM), PC3 co-culture is 0.08 nM.

Question: What about the Emax (fold induction over background), PC3 (fold over background) of the same binder?
Answer: Its Emax (fold induction over background), PC3 (fold over background) is 67.2.

Question: Which results are given for B7?
Answer: EC50 (nM), PC3 co-culture: 0.08 nM; Emax (fold induction over background), PC3 (fold over background): 71.6
